By EC50 is commonly meant the concentration giving half of the maximal effect. High values mean lower potency in that assay, low ones higher potency in that assay. By EC50 (read off the curve) is commonly meant the concentration giving half of the maximal effect.

The target in assay [1] is T1, human PTK7, full length, on the cell surface (human, UniProt Q13308 31-1070).
T1 construct: also called CCK4; protein tyrosine kinase 7
T1 sequence: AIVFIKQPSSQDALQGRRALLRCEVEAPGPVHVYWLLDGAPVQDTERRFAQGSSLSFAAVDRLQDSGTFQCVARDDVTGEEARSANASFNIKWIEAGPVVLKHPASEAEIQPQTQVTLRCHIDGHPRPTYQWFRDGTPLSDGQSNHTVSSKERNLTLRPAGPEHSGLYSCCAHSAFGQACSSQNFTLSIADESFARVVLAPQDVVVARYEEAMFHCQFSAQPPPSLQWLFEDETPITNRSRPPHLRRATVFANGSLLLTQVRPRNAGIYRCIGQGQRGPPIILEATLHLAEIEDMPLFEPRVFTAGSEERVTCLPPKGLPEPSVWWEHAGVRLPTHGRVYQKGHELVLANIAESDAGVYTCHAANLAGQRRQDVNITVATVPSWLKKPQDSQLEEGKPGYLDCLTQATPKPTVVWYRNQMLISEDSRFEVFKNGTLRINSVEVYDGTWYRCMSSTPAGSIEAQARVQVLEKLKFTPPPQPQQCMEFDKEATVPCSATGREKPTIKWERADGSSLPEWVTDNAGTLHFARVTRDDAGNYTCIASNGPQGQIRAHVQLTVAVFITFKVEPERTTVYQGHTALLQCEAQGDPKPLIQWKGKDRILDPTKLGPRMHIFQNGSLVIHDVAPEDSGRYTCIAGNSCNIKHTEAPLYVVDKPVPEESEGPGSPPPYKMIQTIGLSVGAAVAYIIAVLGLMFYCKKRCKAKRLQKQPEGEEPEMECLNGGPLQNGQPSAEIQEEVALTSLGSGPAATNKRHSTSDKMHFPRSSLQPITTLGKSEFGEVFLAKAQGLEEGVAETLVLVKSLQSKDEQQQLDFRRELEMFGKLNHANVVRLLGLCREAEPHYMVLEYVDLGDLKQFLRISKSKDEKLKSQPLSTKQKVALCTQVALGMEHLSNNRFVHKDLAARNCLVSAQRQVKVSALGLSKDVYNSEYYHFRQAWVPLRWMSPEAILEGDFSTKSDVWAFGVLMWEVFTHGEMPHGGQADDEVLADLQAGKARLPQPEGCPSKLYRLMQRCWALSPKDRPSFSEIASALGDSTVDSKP
As to the kind of experiment: flow cytometry on Wilms' tumor G-401 cells, antibody from 30 µg/ml in 1:10 dilutions. Here is the method: The nephroblastoma Wilms' tumor cell line G-401 (ATCC Acc No. CRL-1441) was tested for binding of the HuMAb anti-PTK7 human monoclonal antibodies 12C6 and 7C8 at different concentrations. Binding of the anti-PTK7 human monoclonal antibodies was assessed by incubating 1×10⁵ cells with antibody at a starting concentration of 30 μg/ml and serially diluting the antibody at a 1:10 dilution. The cells were washed and binding was detected with a PE-labeled anti-human IgG Ab. Flow cytometric analyses were performed using a FACScan flow cytometry (Becton Dickinson, San Jose, Calif.). The anti-PTK7 monoclonal antibodies 12C6 and 7C8 bound to the nephroblastoma Wilms' tumor cell line in a concentration dependent manner, as measured by the mean fluorescent intensity (MFI) of staining.

Assay [2] deals with T1, human PTK7, full length, on the cell …. Kind of assay: cell-based or functional assay.
Assay [3] concerns the target T2, recombinant extracellular domain of PTK7 (human, UniProt Q13308 31-704).
T2 construct: also called PTK7 extracellular domain
T2 sequence: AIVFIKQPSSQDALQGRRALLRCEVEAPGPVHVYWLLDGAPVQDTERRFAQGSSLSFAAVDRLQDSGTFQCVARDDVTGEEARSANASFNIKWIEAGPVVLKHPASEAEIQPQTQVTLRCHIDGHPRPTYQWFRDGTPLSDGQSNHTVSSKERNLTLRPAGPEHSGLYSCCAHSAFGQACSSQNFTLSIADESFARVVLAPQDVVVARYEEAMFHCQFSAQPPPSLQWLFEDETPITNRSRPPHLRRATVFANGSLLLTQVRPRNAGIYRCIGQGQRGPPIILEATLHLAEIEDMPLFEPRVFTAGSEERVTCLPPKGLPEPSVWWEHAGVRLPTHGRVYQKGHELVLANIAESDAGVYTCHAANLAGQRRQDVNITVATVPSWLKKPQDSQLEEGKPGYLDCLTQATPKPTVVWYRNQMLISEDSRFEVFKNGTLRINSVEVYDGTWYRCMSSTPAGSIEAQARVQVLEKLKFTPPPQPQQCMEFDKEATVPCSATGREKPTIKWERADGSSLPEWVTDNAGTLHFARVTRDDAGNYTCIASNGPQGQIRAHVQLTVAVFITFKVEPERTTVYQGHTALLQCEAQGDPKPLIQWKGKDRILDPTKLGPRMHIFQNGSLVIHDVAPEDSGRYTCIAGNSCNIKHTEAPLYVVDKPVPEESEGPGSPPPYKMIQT
As to the kind of experiment: ELISA on recombinant PTK7 extracellular domain, HRP anti-human IgG (kappa) detection. On the procedure:
(§1) Recombinant extracellular domain of PTK7 was tested for binding against the anti-PTK7 human monoclonal antibodies 3G8, 4D5, 12C6 and 12C6a at different concentrations. Standard ELISA procedures were performed. The anti-PTK7 human monoclonal antibodies were added at a starting concentration of 10 μg/ml and serially diluted at a 1:2 dilution. Goat-anti-human IgG (kappa chain-specific) polyclonal antibody conjugated with horseradish peroxidase (HRP) was used as secondary antibody. Each of the anti-PTK7 human monoclonal antibodies 3G8, 4D5, 12C6 and 12C6a bound to PTK7.

Assay [4] addresses T1, human PTK7, full length, on the cell …. Kind of assay: flow cytometry on cancer cell lines that express cell surface PTK7, antibody at 10 µg/ml, MFI. Here is the method: Binding of the 3G8, 12C6a, 4D5 and 12C6 anti-PTK7 human monoclonal antibodies to a panel of cancer cell lines was assessed by incubating cancer cell lines with anti-PTK7 human monoclonal antibodies at a concentration of 10 μg/ml. […] An isotype control antibody was used as a negative control. The cells were washed and binding was detected with a FITC-labeled anti-human IgG Ab. Flow cytometric analyses were performed using a FACScan flow cytometry (Becton Dickinson, San Jose, Calif.).

Assay [5] addresses T2, recombinant extracellular domain of PTK7. Kind of assay: ELISA on recombinant extracellular domain of PTK7, antibody from 10 µg/ml in 1:2 dilutions. Here is the method: as §1

Substitutions are numbered along the chain they refer to.

B1: anti-PTK7 human monoclonal antibody 7C8 (antibody, V domains shown)
VH: QVQLVESGGGVVQPGRSLRLSCAASGFTFSSYGMHWVRQAPGKGLEWVAVIWDDGSNKYYVDSVKGRFTISRDNSKNTLYLQMNSLRAEDTAVYYCARDDYYGSGSFNSYYGTDVWGQGTTVTVSS
VL: EIVLTQSPATLSLSPGERATLSCRASQSVSIYLAWYQQKPGQAPRLLIYDASNRATGIPARFSGSGSGTDFTLTISSLEPEDFAVYYCQQRSNWPPFTFGPGTKVDIK
notes: Human IgG with kappa light chain, made by a hybridoma; also called 7CS
Molecule B1 displayed an EC50 in assay [1] of 3430 pM. In assay [2], the “EC50, Hum-Zap internalization assay (3H-thymidine incorporation), A-431 cells” value was found to be 183 pM; the “EC50, Hum-Zap internalization assay (3H-thymidine incorporation), PC3 tumor cells” value was found to be 265 pM; the “EC50, Hum-Zap internalization assay (3H-thymidine incorporation), Wilms' tumor cells” value (“EC50 … Wilms' tumor cells” below) worked out at 179 pM.

B2: anti-PTK7 human monoclonal antibody 4D5 (antibody, V domains shown)
VH: QVQLVESGGGVVQPGRSLRLSCAASGFTFSSYAFHWVRQAPGKGLEWVAVISYDGSIKYYADSVKGRFTISRDNSKNTLYLQMNSLRAEDTAVYYCARTYYFDYWGQGTLVTVSS
VL: EIVLTQSPDFQSVTPKEKVTITCRASQSIGSSLHWYQQKPDQSPKLLIKYASQSFSGVPSRFSGSGSGTDFTLTINSLEAEDAAAYYCHQSSSLPITFGQGTRLEIK
As to B2, the “EC50 … Wilms' tumor cells” value in assay [2] came to 252 pM.

B3: anti-PTK7 human monoclonal antibody 12C6 (antibody, V domains shown)
VH: EVQLVQSGGGLVHPGGSLRLSCAGSGFTFSTYLMYWVRQAPGKTLEWVSAIGSGGDTYYADSVKGRFTISRDNAKNSLYLQMNSLRAEDMAVYYCARGLGYWGQGTLVTVSS
VL: not shown
notes: Human IgG with kappa light chain, made by a hybridoma
On to B3, for which the concentration giving a half-maximal response (EC50 (read off the curve)) in assay [3] was about 0.6 µg/mL. Besides, the concentration giving a half-maximal response (EC50) in assay [1] was found to be 4040 pM. Further, in assay [2], the “EC50, Hum-Zap internalization assay (3H-thymidine incorporation), A-431 cells” value worked out at 166000 pM; the “EC50, Hum-Zap internalization assay (3H-thymidine incorporation), PC3 tumor cells” value stood at 318 pM; the “EC50 … Wilms' tumor cells” value is 205 pM.

B4: anti-PTK7 human monoclonal antibody 3G8 (antibody, V domains shown)
VH: QVQLVESGGGVVQPGRSLRLSCAASGFIFSNYAMHWVRQAPGKGLEWVAVISYDGNNKYYADSVKGRFTISRDNSKNTLYLQMNSLRAEDTAVYYCAREVWSIDNWGQGTLVTVSS
VL: DIQMTQSPSSLSASVGDRVTITCRASQGISSWLAWYQQKPEKAPKSLIYAASSLQSGVPSRFSGSGSGTDFTLTISSLQPEDFATYYCQQYNSYPRTFGQGTKVEIK
In the case of B4, the “EC50 … Wilms' tumor cells” value in assay [2] is 644 pM.

B5: anti-PTK7 human monoclonal antibody 12C6a (antibody, V domains shown)
VH: B3 VH
VL: B4 VL with R96Y, V104L
notes: Human IgG with kappa light chain, made by a hybridoma; Same VH as 12C6
Turning to B5, the binding result in assay [4] and in assay [5] was “binds” each time.

Source of the values: patent publication US20100034826A1 (Bristol-Myers Squibb, published 2010).
